Experimental data published in US20200370050A1 (published 2020).

Tests used:
FLAG-CRAFΔN (193-648) = target: T1, FLAG-CRAFΔN (193-648) (human, UniProt P04049 193-648); experiment: co-immunoprecipitation from M7609 cell lysate on anti-FLAG M2 magnetic beads, Western blot with anti-GSTP1
T1 construct: Expressed in M7609 cells from a pCMV6-Entry vector; also called CRAF protein with a deletion at the N-terminal moiety; not shown: FLAG tag at the C-terminus (plasmid pCMV6-Myc-DDK-CRAFΔN)
Method: (§1) The transfected cells were used for coimmunoprecipitation. The cells were lysed by incubation in 0.5% NP-40 lysis buffer (0.5% NP-40, 20 mM HEPES pH 7.4, 150 mM NaCl, 1 mM MgCl₂, 1 mM EGTA, 10% glycerol, Complete, Mini (Roche Diagnostics) and PhosSTOP (Roche Diagnostics)) on ice for 30 min. Centrifugation was performed to give a supernatant as a cell lysate. The cell lysates obtained from the samples and containing the same amount of protein were each incubated with anti-FLAG M2 magnetic beads (Sigma-Aldrich) at 4° C. for 2 h to overnight, so that each FLAG-tagged protein was attached to the beads. The beads were washed four times with 0.5% NP-40 lysis buffer.
(§2) Each sample for western blotting was prepared from the beads obtained after the coimmunoprecipitation, and then subjected to SDS-PAGE for protein separation. The separated protein was transferred to a PVDF membrane. The membrane was incubated with a primary antibody solution and then washed. The primary antibody used was an anti-GSTP1 antibody (Medical & Biological Laboratories Co., Ltd.), an anti-FLAG antibody (F3165, Sigma-Aldrich), or an anti-GAPDH antibody (Abcam plc.). The membrane was then incubated with a secondary antibody (goat secondary antibody to rabbit or mouse IgG) solution and then washed. The signal on the membrane was visualized using ECL or ECL prime Western blotting detection system (GE Healthcare). […]

FLAG-BRAF (1-766) = target: T2, FLAG-BRAF (1-766) (Homo sapiens (Human), UniProt P15056 1-766); experiment: as above
T2 construct: Expressed in M7609 cells from plasmid pCV6-Myc-DDK-BRAF (OriGene Technologies); also called full-length BRAF protein; BRAF with the extension; not shown: FLAG tag (DDK tag) at the C-terminus
Method: as §1, §2

T2 sequence (P15056 whole entry): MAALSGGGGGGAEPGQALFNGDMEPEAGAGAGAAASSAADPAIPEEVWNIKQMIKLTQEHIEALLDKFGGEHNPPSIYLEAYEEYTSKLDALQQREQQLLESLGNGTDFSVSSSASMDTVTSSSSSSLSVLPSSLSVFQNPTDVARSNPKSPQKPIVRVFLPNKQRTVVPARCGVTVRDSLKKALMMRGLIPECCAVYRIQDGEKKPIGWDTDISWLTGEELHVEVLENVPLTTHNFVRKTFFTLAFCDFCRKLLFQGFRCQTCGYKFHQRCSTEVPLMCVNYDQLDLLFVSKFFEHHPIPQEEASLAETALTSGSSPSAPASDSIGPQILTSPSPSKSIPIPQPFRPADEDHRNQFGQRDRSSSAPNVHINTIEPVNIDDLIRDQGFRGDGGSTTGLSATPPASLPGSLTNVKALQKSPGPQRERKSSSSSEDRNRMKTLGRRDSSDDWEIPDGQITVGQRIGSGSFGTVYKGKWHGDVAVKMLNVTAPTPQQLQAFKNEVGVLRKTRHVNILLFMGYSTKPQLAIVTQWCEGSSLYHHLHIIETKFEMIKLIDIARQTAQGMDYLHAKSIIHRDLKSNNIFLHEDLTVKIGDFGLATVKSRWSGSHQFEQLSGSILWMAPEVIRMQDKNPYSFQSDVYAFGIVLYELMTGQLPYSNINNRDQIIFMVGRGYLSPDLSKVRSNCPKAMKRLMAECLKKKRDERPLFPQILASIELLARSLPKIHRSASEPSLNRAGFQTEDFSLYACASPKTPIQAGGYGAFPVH

- binding result (FLAG-CRAFΔN (193-648)): no binding
- binding result (FLAG-BRAF (1-766)): no binding
B1: GSTP1 (endogenous, in lysates of KRAS mutation-positive colon cancer cells) (enzyme)
chain: PPYTVVYFPVRGRCAALRMLLADQGQSWKEEVVTVETWQEGSLKASCLYGQLPKFQDGDLTLYQSNTILRHLGRTLGLYGKDQQEAALVDMVNDGVEDLRCKYISLIYTNYEAGKDDYVKALPGQLKPFETLLSQNQGGKTFIVGDQISFADYNLLDLLLIHEVLAPGCLDAFPLLSAYVGRLSARPKLKAFLASPEYVNLPINGNGKQ
notes: also called glutathione S-transferase pi; endogenous GSTP1
